Measured values published in PMC2139755.
Values joined by “and” are separate entries in the source; they are usually repeats but may differ in a detail not shown here. Equal values may be shown once. Read-outs that look alike come from different tables or passages of the source.

Columns and labels:
Test in all cases: radioligand binding
[1] = molecular target: receptor for IgE on rat basophilic leukemia cells (RBL-1 cells) (rat (endogenous in RBL-1)) (UniProt P12371)
[2] = molecular target: receptor for IgE on rat basophilic leukemia cells (RBL-1 cells) (rat (endogenous in RBL-1)) (UniProt P12371); remark: listed apart in the source
[3] = molecular target: receptor for IgE on rat basophilic leukemia cells (RBL-1 cells) (rat (endogenous in RBL-1)) (UniProt P12371); remark: listed apart in the source

UniProt P12371, sequence (P12371 24-245, chain 1 of 3): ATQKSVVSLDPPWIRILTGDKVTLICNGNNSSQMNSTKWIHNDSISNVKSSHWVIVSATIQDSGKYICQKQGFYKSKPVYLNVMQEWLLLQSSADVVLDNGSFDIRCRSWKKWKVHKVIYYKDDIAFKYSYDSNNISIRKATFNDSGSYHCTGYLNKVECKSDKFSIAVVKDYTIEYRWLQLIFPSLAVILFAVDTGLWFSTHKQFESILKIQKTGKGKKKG
UniProt P12371, sequence (P13386 whole entry, chain 2 of 3, further chain): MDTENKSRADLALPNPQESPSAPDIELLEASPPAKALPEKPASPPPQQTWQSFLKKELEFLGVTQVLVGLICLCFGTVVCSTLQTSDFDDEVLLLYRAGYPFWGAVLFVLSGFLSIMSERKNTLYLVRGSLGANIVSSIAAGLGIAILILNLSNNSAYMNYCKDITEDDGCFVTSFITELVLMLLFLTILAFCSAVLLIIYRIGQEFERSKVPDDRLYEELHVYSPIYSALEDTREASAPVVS
UniProt P12371, sequence (P20411 19-86, chain 3 of 3, further chain): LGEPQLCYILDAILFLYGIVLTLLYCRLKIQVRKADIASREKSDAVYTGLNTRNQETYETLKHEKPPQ

Which results are given for “[125I]IgE (IR 162), 125I-labeled rat IgE myeloma protein (antibody)”?
Ka [1]: > 6e+09 M⁻¹ and 6e+09 M⁻¹; half-life of dissociation [1]: 12 h; koff [1]: 1.6e-05 s⁻¹ and 1.4e-05 s⁻¹; percent of the labeled protein bound (active fraction) [1]: 70 to 80%; relative binding at 15 min (% of no additive), Ca++ 2 mM [1]: 92%; relative binding at 15 min (% of no additive), Ca++ 4 mM [1]: 88%; relative binding at 15 min (% of no additive), Ca++ 8 mM [1]: 80%; relative binding at 15 min (% of no additive), Ca++ and Mg++ 2, 2 mM [1]: 86%; relative binding at 15 min (% of no additive), EDTA 4 mM [1]: 98%; relative binding at 15 min (% of no additive), EDTA (4 mM) plus Ca++ 2 mM [1]: 78%; relative binding at 15 min (% of no additive), EDTA (4 mM) plus Ca++ 4 mM [1]: 43%; relative binding at 15 min (% of no additive), EDTA (4 mM) plus Mg++ 2 mM [1]: 85%; relative binding at 15 min (% of no additive), EDTA (4 mM) plus Mg++ 8 mM [1]: 44%; relative binding at 15 min (% of no additive), Mg++ 2 mM [1]: 93%; relative binding at 15 min (% of no additive), Mg++ 4 mM [1]: 89%; relative binding at 15 min (% of no additive), Mg++ 8 mM [1]: 82%; relative binding at 20 min (% of no additive), Al2(SO4)3 0.7 x 10^-7 M [1]: 110%; relative binding at 20 min (% of no additive), Al2(SO4)3 7.0 x 10^-7 M [1]: 108%; relative binding at 20 min (% of no additive), Al2(SO4)3 70 x 10^-7 M [1]: 105%; relative binding at 20 min (% of no additive), heparin 3.3 ug/ml [1]: 101%; relative binding at 20 min (% of no additive), heparin 10 ug/ml [1]: 110%; relative binding at 20 min (% of no additive), heparin 30 ug/ml [1]: 102%; relative binding at 20 min (% of no additive), human serum albumin 0.3 mg/ml [1]: 93%; relative binding at 20 min (% of no additive), phosphatidyl serine 12.5 ug/ml [1]: 105%; relative binding at 20 min (% of no additive), phosphatidyl serine 50 ug/ml [1]: 116%; relative binding at 20 min (% of no additive), phosphatidyl serine 200 ug/ml [1]: 135%; relative binding at 60 min (% of no additive), Al2(SO4)3 0.7 x 10^-7 M [1]: 101%; relative binding at 60 min (% of no additive), Al2(SO4)3 7.0 x 10^-7 M [1]: 97%; relative binding at 60 min (% of no additive), Al2(SO4)3 70 x 10^-7 M [1]: 96%; relative binding at 60 min (% of no additive), heparin 3.3 ug/ml [1]: 99%; relative binding at 60 min (% of no additive), heparin 10 ug/ml [1]: 97%; relative binding at 60 min (% of no additive), heparin 30 ug/ml [1]: 101%; relative binding at 60 min (% of no additive), human serum albumin 0.3 mg/ml [1]: 99%; relative binding at 60 min (% of no additive), phosphatidyl serine 12.5 ug/ml [1]: 112%; relative binding at 60 min (% of no additive), phosphatidyl serine 50 ug/ml [1]: 114%; relative binding at 60 min (% of no additive), phosphatidyl serine 200 ug/ml [1]: 121%; relative binding at 61 min (% of no additive), Ca++ 2 mM [1]: 95%; relative binding at 61 min (% of no additive), Ca++ 4 mM [1]: 91%; relative binding at 61 min (% of no additive), Ca++ 8 mM [1]: 85%; relative binding at 61 min (% of no additive), Ca++ and Mg++ 2, 2 mM [1]: 70%; relative binding at 61 min (% of no additive), EDTA 4 mM [1]: 96%; relative binding at 61 min (% of no additive), EDTA (4 mM) plus Ca++ 2 mM [1]: 88%; relative binding at 61 min (% of no additive), EDTA (4 mM) plus Ca++ 4 mM [1]: 46%; relative binding at 61 min (% of no additive), EDTA (4 mM) plus Mg++ 2 mM [1]: 97%; relative binding at 61 min (% of no additive), EDTA (4 mM) plus Mg++ 8 mM [1]: 53%; relative binding at 61 min (% of no additive), Mg++ 2 mM [1]: 70%; relative binding at 61 min (% of no additive), Mg++ 4 mM [1]: 64%; relative binding at 61 min (% of no additive), Mg++ 8 mM [1]: 62%; Ka [2]: 1.2e+10 M⁻¹; koff [2]: 4.7e-06 s⁻¹; kon [2]: 57000 M⁻¹ s⁻¹; Ka [3]: 1.2e+09 M⁻¹; koff [3]: 1.7e-05 s⁻¹; kon [3]: 21000 M⁻¹ s⁻¹
